The target of series [1] is T1, thrombin (alpha) (human, UniProt P00734;P00734 P00734:328-363,P00734:364-622). In words: filter; 30% binding at 300 nM tracer is not separately tabulated; curve in figure.
For series [2], the target named is T2, basic fibroblast growth factor (bFGF) (UniProt P09038 P09038:135-288). The series can be described thus: filter; tested for affinity (*), Family 5; no value given. The note with it: tags: Bachem California, 154 aa, 18 kDa.
Series [3] concerns the target T2, basic fibroblast growth factor (bFGF). In words: filter; tested for affinity (*), Family 3; no value given. The note with it: tags: Bachem California, 154 aa, 18 kDa.
Series [4] addresses T1, thrombin (alpha). In words: filter; specificity, data not shown.
Another series deals with antithrombin III (UniProt P01008 P01008:33-464). In words: filter; specificity, data not shown. Particulars: label: 32P.
For series [5], the target named is T3, vascular endothelial growth factor (VEGF) (UniProt P15692-4 P15692-4:27-191). In words: filter; specificity, data not shown. Particulars: chain copies: 2; label: 32P.
The next series concerns the target acidic FGF (UniProt P05230 P05230:16-155). The series can be described thus: filter; specificity, data not shown. The note with it: label: 32P.
Series [6] has as its target T2, basic fibroblast growth factor (bFGF). In words: competition; displacement from low-affinity receptor on BHK cells; high-affinity receptor >1 uM. The note with it: tags: Bachem California, 18 kDa, 154 aa; 125I-labeled for receptor assays; label: 32P. As to the method: Additionally, modified RNA ligands 21A (SEQ ID NO:104), 38B (SEQ ID NO:114) and Random RNAs were tested.
Receptor Binding Studies. bFGF was labeled with ^125I by the Iodo-Gen (Pierce) procedure as described by Moscatelli (1987) J. Cell. Physiol. 131:123. […] The amount of ^125I-bFGF bound to the low- and the high-affinity receptor sites was determined as described by Moscatelli (1987) supra.

For series [7] the target is unchanged. The series can be described thus: filter; tested for affinity (*), Family 2; no value given. The note with it: tags: Bachem California, 154 aa, 18 kDa.
Series [8] has the same target. The series can be described thus: filter; PBS, 0.01% HSA, 1 mM DTT, 37 C; +/-0.4. The note with it: tags: Bachem California, 18 kDa, 154 aa; 125I-labeled for receptor assays. On the procedure:
(§1) This affinity screening allowed identification of those ligands with highest affinity for bFGF. Binding of a group of these ligands was analyzed over a range of bFGF concentrations (FIG. 5) and their dissociation constants.(Kd's) were determined as described (Jellinek et al. (1993) Proc. Natl. Acad. Sci. USA 90:11227–11231) (Table IX). RNA concentrations were determined from their absorbance reading at […] (and were typically <100 pM). Binding reactions were done at 37° C. in phosphate buffered saline containing 0.01% human serum albumin and 1 mM DTT.

In series [9] the target is T1, thrombin (alpha). The series can be described thus: filter; 100 mM NaCl, 50 mM Tris pH 7.7, 1 mM DTT, 1 mM MgCl2, 37 C.
Series [10] deals with T2, basic fibroblast growth factor (bFGF). The series can be described thus: filter; PBS, 0.01% HSA, 1 mM DTT, 37 C; +/-0.2. Particulars: tags: Bachem California, 18 kDa, 154 aa; 125I-labeled for receptor assays. As to the method:
as §1

Series [11] deals with T1, thrombin (alpha). The series can be described thus: filter; curve only in figure; ERL thrombin.
Series [12] addresses T2, basic fibroblast growth factor (bFGF). The series can be described thus: filter; PBS, 0.01% HSA, 1 mM DTT, 37 C; +/-1.1. Particulars: tags: Bachem California, 18 kDa, 154 aa; 125I-labeled for receptor assays. As to the method:
as §1

Series [13] has the same target. In words: filter; PBS, 0.01% HSA, 1 mM DTT, 37 C; +/-0.1. Particulars: tags: Bachem California, 18 kDa, 154 aa; 125I-labeled for receptor assays. As to the method:
as §1

Series [14] has the same target. In words: filter; PBS, 0.01% HSA, 1 mM DTT, 37 C; +/-0.5. The note with it: tags: Bachem California, 18 kDa, 154 aa; 125I-labeled for receptor assays. As to the method:
as §1

The target in series [15] is T1, thrombin (alpha). The series can be described thus: filter; curve only in figure.
The target in series [16] is T2, basic fibroblast growth factor (bFGF). The series can be described thus: filter. Particulars: tags: Bachem California, 18 kDa, 154 aa; 125I-labeled for receptor assays; 6-base G-C stem with blunt end. On the procedure: In order to eliminate higher order structures, all DNA solutions were heated to 90° C. in PBS for 2–3 minutes and cooled on ice prior to incubation with protein. Relative binding affinity of individual ligands to bFGF cannot be predicted from sequence information. The majority of sequence isolates were therefore screened for their ability to bind to bFGF by measuring the fraction of radiolabeled DNA bound to nitrocellulose filters following incubation with 1 nM protein. […] Binding of these select isolates was then analyzed in more detail.
Those ligands are M225, M19, m234, M235, and D12 (SEQ ID NOS:359, 353, 387, 360, 332). The minimum size of the region necessary for binding was determined to be 35 bases for M225, M19 and D12 (See Truncations, Table XXI M225t3 (SEQ ID NO:364), M19t2 (SEQ ID NO:365), D12t2 (SEQ ID NO:341)). The ligand with the smallest essential sequence, m234, was isolated from Family 2, Experiment 3 and contains 24 nucleotides (m234t2 (SEQ ID NO:391)). The truncated ligands were tested for binding to bFGF. After truncation, ligands M225t3, M19t2, D12t2, M235t2, and m234t2 have kd values of 0.7 nM, 1 nM, 1 nM, 1 nM, and 6 nM respectively (Table XXII). All five of the truncated molecules lost some of their affinity for bFGF in comparison to the full length ligands. The binding affinity is regained when an additional G-C base pair is added to the blunt end stem of M225t3. This molecule is termed M225t3GC (SEQ ID NO:443). The binding of M225t3GC is 0.2 nM compared to 0.7 nM for M225t3 without the additional base pair (Table XXII).

Series [17] has as its target human chorionic gonadotropin (human, UniProt P01215;P0DN86 P01215:25-116,P0DN86:21-165). The series can be described thus: filter. The note with it: 6-base G-C stem with blunt end.
Series [18] has as its target T3, vascular endothelial growth factor …. In words: filter. The note with it: chain copies: 2; 6-base G-C stem with blunt end.
In series [19] the target is T2, basic fibroblast growth factor (bFGF). The series can be described thus: filter; PEG 3400 conjugate. The note with it: tags: Bachem California, 18 kDa, 154 aa; 125I-labeled for receptor assays.
Series [20] has as its target T1, thrombin (alpha). The series can be described thus: filter; ERL thrombin, 1 mM MgCl2, 37 C.

Some results are limits rather than exact numbers.

A word on the Kd: it is the equilibrium constant for the complex coming apart. Read a high Kd as a looser complex. What is called IC50 is the concentration that inhibits the measured activity by half. Higher therefore signals weaker potency in that assay.

T2 sequence (P09038 135-288, one chain of several): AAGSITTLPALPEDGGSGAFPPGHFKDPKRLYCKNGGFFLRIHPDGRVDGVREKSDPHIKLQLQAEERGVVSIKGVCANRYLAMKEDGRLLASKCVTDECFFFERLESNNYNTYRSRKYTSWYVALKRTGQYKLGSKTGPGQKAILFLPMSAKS
T3 sequence (P15692 other isoform, or with tags, fused parts or gaps): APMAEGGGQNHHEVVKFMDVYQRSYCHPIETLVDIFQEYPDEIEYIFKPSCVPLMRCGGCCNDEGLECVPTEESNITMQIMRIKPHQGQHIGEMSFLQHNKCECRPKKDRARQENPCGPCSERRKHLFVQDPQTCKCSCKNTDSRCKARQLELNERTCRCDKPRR
Sequence of human chorionic gonadotropin (P01215 25-116, chain 1 of 2, other chains not shown): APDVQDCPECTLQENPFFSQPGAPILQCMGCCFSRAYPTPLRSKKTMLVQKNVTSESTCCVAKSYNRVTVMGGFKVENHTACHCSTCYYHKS
Sequence of acidic FGF (P05230 16-155, one chain of several): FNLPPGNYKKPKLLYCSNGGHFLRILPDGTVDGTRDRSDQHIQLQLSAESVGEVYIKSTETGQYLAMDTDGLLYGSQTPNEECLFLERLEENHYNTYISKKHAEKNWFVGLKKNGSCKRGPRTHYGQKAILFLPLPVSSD
Sequence of antithrombin III (P01008 33-464, one chain of several): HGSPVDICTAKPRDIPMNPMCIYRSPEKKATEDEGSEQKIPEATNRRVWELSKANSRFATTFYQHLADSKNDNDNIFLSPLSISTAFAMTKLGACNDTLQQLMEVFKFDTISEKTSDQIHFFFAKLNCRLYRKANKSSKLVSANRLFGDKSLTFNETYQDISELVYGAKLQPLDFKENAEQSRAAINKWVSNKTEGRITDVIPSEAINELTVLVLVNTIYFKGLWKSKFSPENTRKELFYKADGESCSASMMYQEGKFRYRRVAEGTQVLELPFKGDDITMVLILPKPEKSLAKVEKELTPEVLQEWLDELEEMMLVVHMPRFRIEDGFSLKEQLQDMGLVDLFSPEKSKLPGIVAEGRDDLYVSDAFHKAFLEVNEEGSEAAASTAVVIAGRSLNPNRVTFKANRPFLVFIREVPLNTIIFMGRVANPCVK

Consider GAGCAUGCUGGUGCGGCUUUGGGCGCCGUGCUU (ssRNA) [33R (Class II clone 27 hairpin)], for which the binding result in the series with thrombin (alpha) [1] is “binds”.

B1: d9 (ssDNA)
DNA: ATCCGCCTGATTAGCGATACTCGAAGAGTAGGAGGCGATCCGCTCCGTATCAGGTCACATAGGACTTGAGCAAAATCACCTGCAGGGG
Consider B1, for which, in [2], the binding result is “binds”.

B2: m219 (ssDNA)
DNA: GGGAGGACGATGCGGGCAGCGACCGCGGTACAAGGCATAGGGTACAGACGACGACGGGGA
Take B2: the binding result in series [3] is recorded as “binds”.

B3: 12A (ssRNA)
RNA: GGGAGCUCAGAAUAAACGCUCAAGGGGCAACGCUACAGACAAGUGCACCCAACUUCGACAUGAGGCCCGGAUCCGGC
As for B3, the dissociation constant Kd (with thrombin (alpha) [4]; in the series with antithrombin III; in series [5]; with acidic FGF) was over 300 nM in each case. The molecule also registered an IC50 in series [6] of over 100 nM.

B4: d46 (ssDNA)
DNA: ATCCGCCTGATTAGCGATACTAACACGGTCTGCTGCGACCCCTCGTACTAACGGTACCAGTACTTGAGCAAAATCACCTGCAGGGG
In the case of B4, in [7], the binding result is “binds”.

B5: 2'-NH2 34B (ssRNA)
RNA: GGGAGGACGAUGCGGAACGGGAGGUACGAGAGCGGGAGCGCAUAAAUAGGAAACUCCUUGCACGUCAGACGACUCGCCCGA
modifications: 2'-NH2 pyrimidines
B5 had a dissociation constant Kd in series [8] of 2 nM.

B6: thrombin Class II RNA 27 (ssRNA)
RNA: AGAUGCCUGUCGAGCAUGCUGGUGCGGCUUUGGGCGCCGUGCUUGACGUAGCUAAACAGCUUUGUCGACGGG
Turning to B6, the Kd with thrombin (alpha) [9] is about 60 nM.

B7: 2'-NH2 59A (ssRNA)
RNA: GGGAGACAAGAAUAACGCUCAAUGUGUGGAAGGGUACCUGAGUGGGGAUGGGUUCGACAGGAGGCUCACAACAGGC
modifications: 2'-NH2 pyrimidines
B7 returned a Kd in series [10] of 1.2 nM. CCGGAUCGAAGUUAGUAGGCCGAG (ssRNA) [24R (Class I clone 16 hairpin)]: the binding result with thrombin (alpha) [11] is on record as “binds”.

B8: d44 (ssDNA)
DNA: ATCCGCCTGATTAGCGATACTGACCACGACTGATGCGTCGCCTCCCGATAGGCAGTTACCCACTTGAGCAAAATCACCTGCAGGGG
Regarding B8, the binding result in series [7] is on record as “binds”.

B9: 2'-NH2 48B (ssRNA)
RNA: GGGAGGACGAUGCGGCAGGAUAGGAUGGGGUCGGAACCGUGUAUCAUAACGAGUCAUCUCCUGGUCAGACGACUCGCCCGA
modifications: 2'-NH2 pyrimidines
In turn, B9 registered an equilibrium dissociation constant (Kd) in series [12] of 6.7 nM.

B10: 2'-NH2 21A (ssRNA)
RNA: GGGAGACAAGAAUAACGCUCAAGUAGACUAAUGUGUGGAAGACAGCGGGUGGUUCGACAGGAGGCUCACAACAGGC
modifications: 2'-NH2 pyrimidines
With B10, the dissociation constant (Kd) in series [13] was 1.3 nM.

B11: 2'-NH2 72B (ssRNA)
RNA: GGGAGGACGAUGCGGCUCAGCAUCCAGGAAGGGGACUUGGUAGGGCACCAUCGAGAUCUUGGCGUCAGACGACUCGCCCGA
modifications: 2'-NH2 pyrimidines
B11: the Kd in series [14] is 3.4 nM.

B12: thrombin Class I RNA 16 (ssRNA)
RNA: AGAUGCCUGUCGAGCAUGCUGCAUCCGGAUCGAAGUUAGUAGGCCGAGGUGGUAGCUAAACAGCUUUGUCGACGGG
With B12, the Kd with thrombin (alpha) [9] was about 30 nM.

B13: thrombin Class I RNA 18 (ssRNA)
RNA: AGAUGCCUGUCGAGCAUGCUGAUUGUUGCGGAUCGAAGUGAGUAGGCGCUAGUAGCUAAACAGCUUUGUCGACGGG
For the molecule B13, the binding result with thrombin (alpha) [15] is on record as “binds”.

B14: thrombin Class I RNA 6 (ssRNA)
RNA: AGAUGCCUGUCGAGCAUGCUGAGGAUCGAAGUUAGUAGGCUUUGUGUGCUCGUAGCUAAACAGCUUUGUCGACGGG
For the molecule B14, in the series with thrombin (alpha) [15], the binding result is on record as “binds”. Take GCGGGGCTACGTACCGGGGCTTTGTAAAACCCCGC (ssDNA) [M225t3]: the Kd in series [16] was 0.7 nM; in series [17], over 200 nM; in [18] it was over 200 nM. For GCGGGGCTACGTACCGGGGCTTTGTAAAACCCCGC (ssDNA, PEG 3400 on 3' amino linker) [PEG-M225t3], the Kd in series [19] was 1 nM.

B15: d1 (ssDNA)
DNA: ATCCGCCTGATTAGCGATACTACACCCAACCCCCTAAGATTTTAGAGCAACTCGGCGCAACACTTGAGCAAAATCACCTGCAGGGG
Take B15: the binding result in series [2] was “binds”. Molecule GGTTGGTGTGGTTGG (ssDNA) [G15D] showed a Kd with thrombin (alpha) [20] of about 200 nM.
